The source of these data is publication PMC12529874.

In test [1] the target is H2O2-oxidized SOD1(C6A) (Cys111 sulfonylated) (human). As to the kind of experiment: not stated; Zn2+-bound SOD1(WT, C6A) before and after oxidation with H2O2; Figure S7, method not given.
Test [2] addresses apo-SOD1(C6A) (human). As to the kind of experiment: SEC-MALS; gel filtration of 20 μM apo protein in MN buffer (100 mM MOPS, 50 mM NaCl, pH 7.0), before or after treatment with 10 mM H2O2, monitored at 280 nm, masses by MALS. On the technique in general: Size exclusion chromatography separates by hydrodynamic size, large species first.
In test [3] the target is apo-SOD1(C6A) (human). As to the kind of experiment: native MS; mass spectra of apo-SOD1(C6A) under native conditions, before and after treatment with H2O2; spectra normalized to the 11+ charge state of the dimer.
For test [4], the target named is apo-SOD1(C6A) (human). Briefly: not stated; Zn2+-bound SOD1(WT, C6A) before and after oxidation with H2O2; Figure S7, method not given.

Take “H2O2-oxidized SOD1(C6A) (Cys111 sulfonylated) (enzyme)”: the stoichiometry N – broadly, a count of units in the complex or per binding partner – in test [1] came to 2.

In the case of apo-SOD1(C6A) (enzyme), the stoichiometry N with apo-SOD1(C6A) (human) [2], in the test with apo-SOD1(C6A) (human) [3] and with apo-SOD1(C6A) (human) [4] was 2 each time.
